In test [1] the target is T1, cynomolgus (cyno) MS4A4A (cynomolgus).
T1 construct: also called cy4A; Cyno 4A
Description: functional affinity, FACS titration on stably transfected 300.19 cells. Here is the method: (§1) Determination of functional affinity/KD was carried out as follows. A constant number of 300.19 cells stably transfected with constructs expressing MS4A4A were blocked against non-specific binding, and then incubated with anti-MS4A4A antibodies at various concentrations predetermined to span from saturation-binding to no antibodies present for three hours on ice so the reaction is allowed to achieve near equilibrium. The cells were then washed and incubated with fluorophore-conjugated secondary antibodies, washed again, and signal determined by FACS Cantos (Becton Dickinson, Franklin Lake, N.J.). To determine functional/KD, the four-parameter dose response curve with variable slope was fitted onto the data by Prism (Graphpad, San Diego, Calif.), based on the multiple independent binding site model described by Drake and Klakamp, supra.

The target in test [2] is T2, human MS4A4A (human, UniProt Q96JQ5 1-239). The description is as above. As to the method: as §1
Test [3] deals with T3, BSA-conjugated human MS4A4A ECL2 peptide (amino acid residues 159-179) (human, conjugated to BSA (site not stated)).
T3 construct: also called MS4A4A-ECL2 BSA conjugated peptide; BSA-MS4A4A-ELC2 peptide
T3 peptide: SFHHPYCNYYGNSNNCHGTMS
Kind of test: ELISA, hybridoma supernatant.

Test [4] addresses T4, human MS4A6A ECL1 peptide (amino acid residues 68-85) (human).
T4 peptide: SASFSPNFTQVTSTLLNS
Kind of test: array SPR.

In test [5] the target is T5, human MS4A6A ECL2 peptide (amino acid residues 138-185) (human).
T5 peptide: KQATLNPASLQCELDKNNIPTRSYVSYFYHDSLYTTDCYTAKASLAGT
Kind of test: array SPR.

Test [6] has as its target T6, human MS4A4A ECL1 peptide (amino acid residues 86-98) (human).
T6 construct: synthetic peptide
T6 peptide: CMASNTYGSNPIS
Description: peptide ELISA. The method in brief: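 Free or BSA-conjugated peptides were coated at 2 or 10 […] in 0.05M carbonate buffer, pH 9.6, overnight at 4 °C, then blocked 1 h with PBS+0.5% BSA+0.05% Tween20. Antibodies were bound 30 min at room temperature with shaking. TMB was developed 5-10 min, stopped, and absorbance read at 650 nm.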
(In general: In an ELISA, binding on a coated surface is turned into a signal by an enzyme label.)

Test [7] has as its target T2, human MS4A4A. Description: FACS, K562 cells, supernatant; K562 cells overexpressing h4A. Here is the method: Positive clones identified in Example 22 above were expanded and then rescreened for specificity against U937, K562, and/or 300.19 cells stably overexpressing human MS4A4A or cyno MS4A4A and parental U937, K562, and/or 300.19 cells. These experiments were performed using supernatants from hybridoma clones which had undergone further expansion after initial selection. Briefly, stably transfected cells were labeled with LIVE/DEAD Fixable Aqua Dead Cell Stain Kit (ThermoFisher Scientific Cat#L34957) on ice for 30 minutes. […] 2×10⁵ cells were aliquoted per well in 96-well U-bottom plates and incubated with 50 μl of culture supernatant on ice for 30 minutes. […] Following this secondary incubation, the cells were again washed twice with ice-cold FACS buffer and resuspended in a final volume of 200 μl of FACS buffer. Analysis was performed on a FACS Canto system (BD Biosciences), with gates drawn to exclude dead (Aqua-positive) cells.
The APC ratio was calculated for each antibody as follows. […] For cell lines overexpressing human MS4A4A (h4A) or cyno MS4A4A (cy4A), the ration was calculated by comparing the binding measured to the binding observed on the corresponding parental cell lines.

For test [8], the target named is T7, human MS4A4A ECL2 peptide (amino acid residues 159-179), free (human).
T7 construct: synthetic peptide; also called huMS4A4A-ELC2 free-peptide
T7 peptide: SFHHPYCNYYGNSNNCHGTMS
Description: peptide ELISA, supernatant.

The target of test [9] is T1, cynomolgus (cyno) MS4A4A. Kind of test: FACS, stably transfected cells.

B1: anti-MS4A4A antibody 4A-18, huIgG1 chimera (antibody, V domains shown)
VH: QVQLQQPGTELVKPGASVKLSCKASGYTFTSYWIHWVKQRPGQGLEWIGNINPTNGGTNYNERFKSKATLTVDKSSSTAYMQLSSLTSEDSAVYYCARAYYYGSSLFAYWGQGTLVTVSA
VL: DIVMTQSQKFMSTTVGDRVSITCKASQNVGTAVAWSQQKPGQSPKLLIYSASYRHTGVPDRFTGSGSGTDFTLTITNMQSEDLADYFCQQYSTYPWTFGGGTKLEIK
notes: also called 4A-18 (hIgG1)
In the case of B1, the Kd (as a rule, the equilibrium constant for the complex coming apart) in test [1] is 3.1 nM; in test [2] it was 0.84 nM.

B2: anti-MS4A4A antibody 4A-18 (murine) (antibody, IgG1, V domains shown)
VH: QVQLQQPGTELVKPGASVKLSCKASGYTFTSYWIHWVKQRPGQGLEWIGNINPTNGGTNYNERFKSKATLTVDKSSSTAYMQLSSLTSEDSAVYYCARAYYYGSSLFAYWGQGTLVTVSA
VL: DIVMTQSQKFMSTTVGDRVSITCKASQNVGTAVAWSQQKPGQSPKLLIYSASYRHTGVPDRFTGSGSGTDFTLTITNMQSEDLADYFCQQYSTYPWTFGGGTKLEIK
notes: murine hybridoma antibody, msIgG1; also called 4A-18 (msIgG1)
In the case of B2, the Kd in test [2] stood at 1.6 nM. Also, the binding result in [3] is reported as “no binding”; in [4], “no binding (tested: 2000 nM)”; in test [5] it was “no binding (tested: 2000 nM)”; in test [6] it was “no binding”.

B3: anti-MS4A4A antibody 4A-213 (murine) (antibody, V domains shown)
VH: QVQLKESGPGLVAPSQSLSITCTVSGFSLTSYGVHWVRQPPGKGLEWLGVIWVGGSTNYNSALMSRLSISKDNSKSQVFLKMNSLQTDDTAMYYCARAVYYYGSSYYFDYWGQGTTVTVSS
VL: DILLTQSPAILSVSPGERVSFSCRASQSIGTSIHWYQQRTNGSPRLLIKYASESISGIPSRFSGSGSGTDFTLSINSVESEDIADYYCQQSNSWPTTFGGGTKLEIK
notes: murine hybridoma antibody
For the molecule B3, in [7], the “fold increase in MFI” value was over 2 fold. Further, the binding result is “no binding” in [6], “no binding” in [8] and “binds” in [9].

B4: anti-MS4A4A antibody 4A-21, huIgG1 chimera (antibody, V domains shown)
VH: QIQLVQSGPELKKPGETVKISCKASGYIFTSYGLSWVKQTPGKGLKWMGWINTYSGVPTYANDFKGRFAFSLETSASTTYLRINNLKNDDTATYFCARSLVDYWGQGTPLTVSS
VL: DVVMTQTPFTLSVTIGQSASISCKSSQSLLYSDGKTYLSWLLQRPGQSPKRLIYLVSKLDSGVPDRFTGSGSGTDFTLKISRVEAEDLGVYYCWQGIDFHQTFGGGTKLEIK
notes: also called 4A-21 (hIgG1)
B4 registered a Kd in test [1] of 7.6 nM.

B5: anti-MS4A4A antibody 4A-202, huIgG1 chimera (antibody, V domains shown)
VH: QVQLQQSGAELARPGASVKLSCKASGYTFTNYWMQWVKQRPGQGLEWIGATHPGHGDTRYTQKFKGKATLSADKSSSTAYMQLSNLASEDSAVYYCAREEVYYGFRSYWYFDVWGAGTTVTVSS
VL: not shown
On to B5, for which the values for the equilibrium dissociation constant (Kd) in test [1] and in [2] were 1.8 nM and 3.5 nM, respectively.
